Data as given in US20260242478A1 (published 2026).

Experiments:
[1] = molecular target: T1, Anti-PSMA Fab (biotinylated (site not stated)); assay: clonal phage ELISA on captured PSMA Fab, wells pre-incubated with PSMA antigen as competitor, anti-M13 HRP detection;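 also: crude clonal phage supernatants added, with no intervening wash, to wells preincubated with PSMA antigen in blocking buffer, incubated briefly, then washed before detecting bound phage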
T1 construct: also called 006 PSMA Fab

[2] = molecular target: T1, Anti-PSMA Fab; assay: clonal phage ELISA on biotinylated PSMA Fab captured on neutravidin plate, anti-M13 HRP detection
Procedure: (§1) Clonal phage were harvested as crude supernatants and screened via standard ELISAs. […] Prior to the addition of clonal phage. wells were incubated with blocking buffer and PSMA antigen or blocking buffer alone. Without washing or aspirating, clonal phage supernatants were then added to the wells and incubated for a short time. Wells were then washed followed by detection of bound phage using a horse radish conjugated anti-M13 antibody.

[3] = molecular target: T2, PSMA Fab (006 PSMA Fab); assay: clonal phage ELISA on biotinylated PSMA Fab captured on neutravidin, anti-M13 HRP detection;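 also: crude clonal phage supernatants added to wells pretreated with PSMA antigen in blocking buffer or with blocking buffer only, then briefly incubated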
T2 construct: also called Anti-PSMA Fab
Procedure: as §1

[4] = molecular target: T2, PSMA Fab (006 PSMA Fab); assay: clonal phage ELISA on captured PSMA Fab, wells pre-incubated with PSMA antigen as competitor
Procedure: as §1

[5] = molecular target: T3, PSMA Fab (biotinylated (site not stated)); assay: clonal phage ELISA on captured PSMA Fab; competitor: PSMA antigen at saturating concentration
T3 construct: also called Anti-PSMA Fab; 006 PSMA Fab

[6] = molecular target: T3, PSMA Fab; assay: clonal phage ELISA on biotinylated PSMA Fab captured on neutravidin plate, anti-M13 HRP detection; no PSMA antigen
Procedure: as §1

[7] = molecular target: T4, PSMA Fab (SEQ ID NOs: 19, 20); assay: clonal phage ELISA on captured PSMA Fab, wells pre-incubated with PSMA antigen as competitor
T4 construct: also called Anti-PSMA Fab; 006 PSMA Fab
Procedure: as §1

[8] = molecular target: T4, PSMA Fab (SEQ ID NOs: 19, 20); assay: clonal phage ELISA, biotinylated PSMA Fab on neutravidin plate, anti-M13 HRP detection;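 also: crude clonal phage supernatants added to wells pretreated with blocking buffer either with or without PSMA antigen, bound phage read after washing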
Procedure: as §1

B1: Phage-3552 (peptide)
peptide: VDRLCVPNWMCMGL
notes: Clonal phage of the Peptide-180 library
[1]
  Phage binding ELISA signal, Anti-PSMA Fab with PSMA antigen: 0.072
[2]
  Phage binding ELISA signal, Anti-PSMA Fab: 1.64

B2: Phage-3566 (peptide)
peptide: VSTMCVPEWMCGGF
notes: Peptide-180 library clone, tested as clonal phage supernatant with the peptide fused to pIII of the bacteriophage
[3]
  Phage binding ELISA signal, Anti-PSMA Fab: 1.63
[4]
  Phage binding ELISA signal, Anti-PSMA Fab in presence of PSMA: 0.122

B3: Phage-3508 (peptide)
peptide: VDHRCVPSWMCYGL
[5]
  phage binding ELISA signal: 0.0745
[6]
  phage binding ELISA signal: 1.69

B4: Phage-3562 (peptide)
peptide: DDIRCEPIWMCTGF
notes: as for B2
[3]
  Phage binding ELISA signal, Anti-PSMA Fab: 1.64
[4]
  Phage binding ELISA signal, Anti-PSMA Fab in presence of PSMA: 0.0657

B5: Phage-3517 (peptide)
peptide: MVPRCEPEWMCVGF
[5]
  phage binding ELISA signal: 0.0705
[6]
  phage binding ELISA signal: 1.69

B6: Phage-3541 (peptide)
peptide: ENLICKPAWMCVGF
notes: Tested as crude clonal phage supernatant
[7]
  Phage binding ELISA signal, Anti-PSMA Fab with PSMA antigen: 0.0738
[8]
  Phage binding ELISA signal, Anti-PSMA Fab: 1.65

B7: Phage-3504 (peptide)
peptide: NIIHCVPPWMCDGF
[5]
  phage binding ELISA signal: 0.0795
[6]
  phage binding ELISA signal: 1.7

B8: Phage-3514 (peptide)
peptide: VVKHCVPTWMCAGF
[5]
  phage binding ELISA signal: 0.0813
[6]
  phage binding ELISA signal: 1.69

B9: Phage-3534 (peptide)
peptide: ESVYCIPQWMCSGL
notes: as for B6
[7]
  Phage binding ELISA signal, Anti-PSMA Fab with PSMA antigen: 0.0698
[8]
  Phage binding ELISA signal, Anti-PSMA Fab: 1.66

B10: Phage-3555 (peptide)
peptide: LAVRCIPEWMCYGL
notes: as for B1
[1]
  Phage binding ELISA signal, Anti-PSMA Fab with PSMA antigen: 0.0644
[2]
  Phage binding ELISA signal, Anti-PSMA Fab: 1.64

B11: Phage-3558 (peptide)
peptide: VEPACVPLWMCFGL
notes: as for B1
[1]
  Phage binding ELISA signal, Anti-PSMA Fab with PSMA antigen: 0.0619
[2]
  Phage binding ELISA signal, Anti-PSMA Fab: 1.64

B12: Phage-3557 (peptide)
peptide: VVPLCVPMWMCSPM
notes: as for B1
[1]
  Phage binding ELISA signal, Anti-PSMA Fab with PSMA antigen: 0.0867
[2]
  Phage binding ELISA signal, Anti-PSMA Fab: 1.64

B13: Phage-3539 (peptide)
peptide: DVRMCVPEWMCSGF
notes: as for B6
[7]
  Phage binding ELISA signal, Anti-PSMA Fab with PSMA antigen: 0.0753
[8]
  Phage binding ELISA signal, Anti-PSMA Fab: 1.65

B14: Phage-3544 (peptide)
peptide: FLQACKPPWMCTGF
notes: as for B6
[7]
  Phage binding ELISA signal, Anti-PSMA Fab with PSMA antigen: 0.146
[8]
  Phage binding ELISA signal, Anti-PSMA Fab: 1.65

B15: Phage-3560 (peptide)
peptide: MERWCIPVWMCQGL
notes: as for B1
[1]
  Phage binding ELISA signal, Anti-PSMA Fab with PSMA antigen: 0.0734
[2]
  Phage binding ELISA signal, Anti-PSMA Fab: 1.64

B16: Phage-3564 (peptide)
peptide: SPSYCVPKWMCVGF
notes: as for B2
[3]
  Phage binding ELISA signal, Anti-PSMA Fab: 1.64
[4]
  Phage binding ELISA signal, Anti-PSMA Fab in presence of PSMA: 0.0712

B17: Phage-3533 (peptide)
peptide: VERVCVPQWMCSGF
notes: as for B6
[7]
  Phage binding ELISA signal, Anti-PSMA Fab with PSMA antigen: 0.1
[8]
  Phage binding ELISA signal, Anti-PSMA Fab: 1.66

B18: Phage-3561 (peptide)
peptide: VVNFCKPQWMCSGF
notes: as for B1
[1]
  Phage binding ELISA signal, Anti-PSMA Fab with PSMA antigen: 0.0682
[2]
  Phage binding ELISA signal, Anti-PSMA Fab: 1.64

B19: Phage-3537 (peptide)
peptide: FEVACIPQWMCDGF
notes: as for B6
[7]
  Phage binding ELISA signal, Anti-PSMA Fab with PSMA antigen: 0.118
[8]
  Phage binding ELISA signal, Anti-PSMA Fab: 1.66

B20: Phage-3507 (peptide)
peptide: AEPVCVPDWMCFGF
[5]
  phage binding ELISA signal: 0.103
[6]
  phage binding ELISA signal: 1.69

B21: Phage-3565 (peptide)
peptide: ELLKCVPQWMCTGF
notes: as for B2
[3]
  Phage binding ELISA signal, Anti-PSMA Fab: 1.63
[4]
  Phage binding ELISA signal, Anti-PSMA Fab in presence of PSMA: 0.126

B22: Phage-3536 (peptide)
peptide: LEMACRPMWMCQGL
notes: as for B6
[7]
  Phage binding ELISA signal, Anti-PSMA Fab with PSMA antigen: 0.0725
[8]
  Phage binding ELISA signal, Anti-PSMA Fab: 1.66

B23: Phage-3545 (peptide)
peptide: VVKACIPEWMCSGF
notes: as for B6
[7]
  Phage binding ELISA signal, Anti-PSMA Fab with PSMA antigen: 0.125
[8]
  Phage binding ELISA signal, Anti-PSMA Fab: 1.65
